This note sets out measurements from patent US20160002357A1 (Pfizer, published 2016).

Where a chain is given by its changes, count along the chain named.

First the molecules themselves.
B1: anti-P-cadherin scFv 153 alanine-mutant H1.1-Ala (scFv, V domains shown)
VH: EVQLVQSGAEVKKPGASVKVSCKASAYTFTSYGISWVRQAPGQGLEWMGWISAYNGNTNYAQKLQGRVTMTTDTSTSTAYMELRSLRSDDTAVYYCATIDTANAFGIWGQGTMVTVSS
VL: QSVLTQPPSVSAAPGQKVTISCSGSSSNIGNNYVSWYQQLPGTAPKLLIYDNNKRPSGIPDRFSGSKSGTSATLGITGLQTGDEADYYCGTWDSSLSGVVFGGGTKLTVL
notes: scFv on phage
B2: anti-P-cadherin scFv 153 alanine-mutant H3.1-Ala (scFv, V domains shown)
VH: B1 VH with A26G, I99A
VL: B1 VL
notes: scFv on phage
B3: anti-P-cadherin scFv 153 alanine-mutant H2.15-Ala (scFv, V domains shown)
VH: B1 VH with A26G, L64A
VL: B1 VL
notes: scFv on phage
B4: anti-P-cadherin scFv 153 alanine-mutant H1.4-Ala (scFv, V domains shown)
VH: B1 VH with A26G, F29A
VL: B1 VL
notes: scFv on phage
B5: anti-P-cadherin scFv 153 alanine-mutant H2.10-Ala (scFv, V domains shown)
VH: B1 VH with A26G, N59A
VL: B1 VL
notes: scFv on phage
B6: anti-P-cadherin scFv 153 alanine-mutant H2.17-Ala (scFv, V domains shown)
VH: B1 VH with A26G, G66A
VL: B1 VL
notes: scFv on phage
B7: anti-P-cadherin scFv 153 alanine-mutant H2.13-Ala (scFv, V domains shown)
VH: B1 VH with A26G, Q62A
VL: B1 VL
notes: scFv on phage
B8: anti-P-cadherin scFv 153 alanine-mutant H1.2-Ala (scFv, V domains shown)
VH: B1 VH with A26G, Y27A
VL: B1 VL
notes: scFv on phage
B9: anti-P-cadherin scFv 153 alanine-mutant H1.9-Ala (scFv, V domains shown)
VH: B1 VH with A26G, I34A
VL: B1 VL
notes: scFv on phage
B10: anti-P-cadherin scFv 153 alanine-mutant H2.14-Ala (scFv, V domains shown)
VH: B1 VH with A26G, K63A
VL: B1 VL
notes: scFv on phage
B11: anti-P-cadherin scFv 153 alanine-mutant H1.8-Ala (scFv, V domains shown)
VH: B1 VH with A26G, G33A
VL: B1 VL
notes: scFv on phage
B12: anti-P-cadherin scFv 153 alanine-mutant H1.5-Ala (scFv, V domains shown)
VH: B1 VH with A26G, T30A
VL: B1 VL
notes: scFv on phage
B13: anti-P-cadherin scFv 153 alanine-mutant H2.8-Ala (scFv, V domains shown)
VH: B1 VH with A26G, N57A
VL: B1 VL
notes: scFv on phage
B14: anti-P-cadherin scFv 153 alanine-mutant H2.6-Ala (scFv, V domains shown)
VH: B1 VH with A26G, N55A
VL: B1 VL
notes: scFv on phage
B15: anti-P-cadherin scFv 153 alanine-mutant H2.7-Ala (scFv, V domains shown)
VH: B1 VH with A26G, G56A
VL: B1 VL
notes: scFv on phage
B16: anti-P-cadherin scFv 153 alanine-mutant H2.16-Ala (scFv, V domains shown)
VH: B1 VH with A26G, Q65A
VL: B1 VL
notes: scFv on phage
B17: anti-P-cadherin scFv 153 alanine-mutant H3.3-Ala (scFv, V domains shown)
VH: B1 VH with A26G, T101A
VL: B1 VL
notes: scFv on phage
B18: anti-P-cadherin scFv 153 alanine-mutant H1.10-Ala (scFv, V domains shown)
VH: B1 VH with A26G, S35A
VL: B1 VL
notes: scFv on phage
B19: anti-P-cadherin scFv 153 alanine-mutant H3.2-Ala (scFv, V domains shown)
VH: B1 VH with A26G, D100A
VL: B1 VL
notes: scFv on phage
B20: anti-P-cadherin scFv 153 alanine-mutant H1.7-Ala (scFv, V domains shown)
VH: B1 VH with A26G, Y32A
VL: B1 VL
notes: scFv on phage
B21: anti-P-cadherin scFv 153 alanine-mutant H2.5-Ala (scFv, V domains shown)
VH: B1 VH with A26G, Y54A
VL: B1 VL
notes: scFv on phage
B22: anti-P-cadherin scFv 153 alanine-mutant H2.11-Ala (scFv, V domains shown)
VH: B1 VH with A26G, Y60A
VL: B1 VL
notes: scFv on phage
B23: anti-P-cadherin scFv 153 alanine-mutant H2.1-Ala (scFv, V domains shown)
VH: B1 VH with A26G, W50A
VL: B1 VL
notes: scFv on phage
B24: anti-P-cadherin scFv 153 alanine-mutant H2.3-Ala (scFv, V domains shown)
VH: B1 VH with A26G, S52A
VL: B1 VL
notes: scFv on phage
B25: anti-P-cadherin scFv 153 alanine-mutant H2.9-Ala (scFv, V domains shown)
VH: B1 VH with A26G, T58A
VL: B1 VL
notes: scFv on phage
B26: anti-P-cadherin scFv 153 alanine-mutant H1.6-Ala (scFv, V domains shown)
VH: B1 VH with A26G, S31A
VL: B1 VL
notes: scFv on phage
B27: anti-P-cadherin scFv 153 alanine-mutant H2.2-Ala (scFv, V domains shown)
VH: B1 VH with A26G, I51A
VL: B1 VL
notes: scFv on phage
B28: anti-P-cadherin scFv 153 alanine-mutant H1.3-Ala (scFv, V domains shown)
VH: B1 VH with A26G, T28A
VL: B1 VL
notes: scFv on phage

The target of the assay is T1, P-cadherin-ECD1-3-Fc protein (human P-cadherin-Fc) (human, UniProt P22223 108-440).
T1 construct: Construct was expressed with signal peptide and pro-peptide (PACE co-transfected to process the propeptide); not shown: hinge and CH2 and CH3 domains of human IgG1
T1 sequence (P22223 108-440): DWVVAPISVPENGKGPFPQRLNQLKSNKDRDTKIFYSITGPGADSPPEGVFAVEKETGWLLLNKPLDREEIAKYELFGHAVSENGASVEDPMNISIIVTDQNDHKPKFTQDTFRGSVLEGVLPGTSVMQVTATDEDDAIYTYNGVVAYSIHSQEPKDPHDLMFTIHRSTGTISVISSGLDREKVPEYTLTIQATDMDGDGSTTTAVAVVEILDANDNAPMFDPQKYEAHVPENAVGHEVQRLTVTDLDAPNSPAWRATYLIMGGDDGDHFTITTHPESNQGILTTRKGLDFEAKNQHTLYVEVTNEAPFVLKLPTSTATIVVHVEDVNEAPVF
The assay is described as follows: phage scFv ELISA, coated P-cadherin-ECD1-3-Fc. The method, then: P-cadherin-ECD1-3-Fc protein or negative control protein was coated overnight at 4° C. on 96-well Nunc Maxisorp® plates (Thermo Fisher Scientific, Madison, Conn.) at a concentration of 2 μg/mL in PBS+Ca²⁺ and Mg²⁺. Plates were washed three times using PBS+Ca²⁺ and Mg²⁺ and blocked for 1 hour at room temperature in 3% milk/PBS+Ca²⁺ and Mg²⁺. Phage samples prepared as described above were added to the blocked plates for 1 hour at room temperature. Plates were washed three times with PBS+Ca²⁺ and Mg²⁺ prior to the addition of secondary antibody (anti M13-HRP 1:2000, GE Healthcare, Piscataway, N.J.). Plates were incubated for a further 1 hour at room temperature and washed six times with PBS+Ca²⁺ and Mg²⁺. Signal was developed using TMB (SurModics, Eden Prairie, Minn.), the reaction stopped with H₂SO₄ and the absorbance read at 450 nm on an EnVision® plate reader (Perkin Elmer, Waltham, Mass.).
With B1, the “% of binding of Clone #153 to human P-cadherin-Fc” value turned out to be 135%, the “Human P-cadherin-Fc binding (OD450)” value amounted to 1.79 OD450 and the “Z Score” value came out at 0.7.

Turning to B2, the “% of binding of Clone #153 to human P-cadherin-Fc” value amounted to 13%, the “Human P-cadherin-Fc binding (OD450)” value stood at 0.17 OD450 and the “Z Score” value is -1.8.

With B3, the “% of binding of Clone #153 to human P-cadherin-Fc” value worked out at 101%, the “Human P-cadherin-Fc binding (OD450)” value is 1.34 OD450 and the “Z Score” value was 0.

As for B4, the “% of binding of Clone #153 to human P-cadherin-Fc” value is 177%, the “Human P-cadherin-Fc binding (OD450)” value is 2.33 OD450 and the “Z Score” value was 1.6.

Turning to B5, the “% of binding of Clone #153 to human P-cadherin-Fc” value was 172%, the “Human P-cadherin-Fc binding (OD450)” value came out at 2.27 OD450 and the “Z Score” value was determined as 1.5.

On to B6, for which the “% of binding of Clone #153 to human P-cadherin-Fc” value is 162%, the “Human P-cadherin-Fc binding (OD450)” value was 2.14 OD450 and the “Z Score” value turned out to be 1.3.

As for B7, the “% of binding of Clone #153 to human P-cadherin-Fc” value is 152%, the “Human P-cadherin-Fc binding (OD450)” value was determined as 2.01 OD450 and the “Z Score” value turned out to be 1.1.

Regarding B8, the “% of binding of Clone #153 to human P-cadherin-Fc” value is 179%, the “Human P-cadherin-Fc binding (OD450)” value worked out at 2.36 OD450 and the “Z Score” value turned out to be 1.7.

For B9, the “% of binding of Clone #153 to human P-cadherin-Fc” value was found to be 167%, the “Human P-cadherin-Fc binding (OD450)” value is 2.21 OD450 and the “Z Score” value is 1.4.

Take B10: the “% of binding of Clone #153 to human P-cadherin-Fc” value came out at 117%, the “Human P-cadherin-Fc binding (OD450)” value was 1.54 OD450 and the “Z Score” value stood at 0.4.

Turning to B11, the “% of binding of Clone #153 to human P-cadherin-Fc” value came to 27%, the “Human P-cadherin-Fc binding (OD450)” value is 0.36 OD450 and the “Z Score” value was -1.5.

As to B12, the “% of binding of Clone #153 to human P-cadherin-Fc” value was 155%, the “Human P-cadherin-Fc binding (OD450)” value came to 2.05 OD450 and the “Z Score” value amounted to 1.2.

As to B13, the “% of binding of Clone #153 to human P-cadherin-Fc” value is 162%, the “Human P-cadherin-Fc binding (OD450)” value stood at 2.14 OD450 and the “Z Score” value was 1.3.

In the case of B14, the “% of binding of Clone #153 to human P-cadherin-Fc” value amounted to 80%, the “Human P-cadherin-Fc binding (OD450)” value was found to be 1.06 OD450 and the “Z Score” value was -0.4.

Take B15: the “% of binding of Clone #153 to human P-cadherin-Fc” value is 114%, the “Human P-cadherin-Fc binding (OD450)” value turned out to be 1.5 OD450 and the “Z Score” value is 0.3.

As to B16, the “% of binding of Clone #153 to human P-cadherin-Fc” value was found to be 68%, the “Human P-cadherin-Fc binding (OD450)” value came to 0.9 OD450 and the “Z Score” value was -0.7.

B17: the “% of binding of Clone #153 to human P-cadherin-Fc” value was determined as 171%, the “Human P-cadherin-Fc binding (OD450)” value amounted to 2.26 OD450 and the “Z Score” value turned out to be 1.5.

With B18, the “% of binding of Clone #153 to human P-cadherin-Fc” value was determined as 161%, the “Human P-cadherin-Fc binding (OD450)” value worked out at 2.13 OD450 and the “Z Score” value was 1.3.

As to B19, the “% of binding of Clone #153 to human P-cadherin-Fc” value was determined as 168%, the “Human P-cadherin-Fc binding (OD450)” value was determined as 2.22 OD450 and the “Z Score” value was 1.4.

B20: the “% of binding of Clone #153 to human P-cadherin-Fc” value stood at 129%, the “Human P-cadherin-Fc binding (OD450)” value turned out to be 1.71 OD450 and the “Z Score” value was found to be 0.6.

Regarding B21, the “% of binding of Clone #153 to human P-cadherin-Fc” value came out at 34%, the “Human P-cadherin-Fc binding (OD450)” value stood at 0.45 OD450 and the “Z Score” value is -1.4.

Consider B22, for which the “% of binding of Clone #153 to human P-cadherin-Fc” value is 163%, the “Human P-cadherin-Fc binding (OD450)” value turned out to be 2.15 OD450 and the “Z Score” value was 1.3.

Regarding B23, the “% of binding of Clone #153 to human P-cadherin-Fc” value turned out to be 103%, the “Human P-cadherin-Fc binding (OD450)” value turned out to be 1.37 OD450 and the “Z Score” value amounted to 0.1.

Take B24: the “% of binding of Clone #153 to human P-cadherin-Fc” value is 138%, the “Human P-cadherin-Fc binding (OD450)” value came to 1.83 OD450 and the “Z Score” value is 0.8.

Consider B25, for which the “% of binding of Clone #153 to human P-cadherin-Fc” value came out at 154%, the “Human P-cadherin-Fc binding (OD450)” value stood at 2.03 OD450 and the “Z Score” value was found to be 1.1.

As to B26, the “% of binding of Clone #153 to human P-cadherin-Fc” value is 149%, the “Human P-cadherin-Fc binding (OD450)” value was determined as 1.97 OD450 and the “Z Score” value worked out at 1.

For the molecule B27, the “% of binding of Clone #153 to human P-cadherin-Fc” value is 166%, the “Human P-cadherin-Fc binding (OD450)” value turned out to be 2.2 OD450 and the “Z Score” value is 1.4.

Consider B28, for which the “% of binding of Clone #153 to human P-cadherin-Fc” value was 174%, the “Human P-cadherin-Fc binding (OD450)” value amounted to 2.3 OD450 and the “Z Score” value was found to be 1.6.
